{
  "source": "patent US20190389905A1",
  "about": "(OREGON STATE UNIVERSITY, published 2019)",
  "key": {"[1]": {"target": "AniA expressed by intact N. gonorrhoeae FA1090 ΔaniA/Plac::aniA cells (Neisseria gonorrhoeae FA1090), Q02219", "test": "cell-based or functional assay"}, "[2]": {"target": "T1, sAniA, recombinant AniA (NGO1276) of Neisseria gonorrhoeae FA1090 lacking the N-terminal palmitoylation … (Neisseria gonorrhoeae FA1090, UniProt Q02219 19-392)", "T1 sequence": "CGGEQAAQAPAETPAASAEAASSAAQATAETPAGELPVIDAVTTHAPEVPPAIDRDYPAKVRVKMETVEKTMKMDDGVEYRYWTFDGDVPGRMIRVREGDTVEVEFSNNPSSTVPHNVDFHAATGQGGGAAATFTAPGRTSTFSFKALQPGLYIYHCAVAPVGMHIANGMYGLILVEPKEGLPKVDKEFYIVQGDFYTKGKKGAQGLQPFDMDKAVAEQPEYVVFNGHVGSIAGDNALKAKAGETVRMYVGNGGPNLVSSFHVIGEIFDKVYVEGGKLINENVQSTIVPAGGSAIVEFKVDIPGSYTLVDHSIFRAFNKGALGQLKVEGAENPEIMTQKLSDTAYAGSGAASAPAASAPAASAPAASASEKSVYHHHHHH", "test": "cell-based or functional assay"}, "[3]": {"target": "T1, sAniA, recombinant AniA (NGO1276) of …", "test": "biolayer interferometry (OctetRed 96): C7-3Bio on streptavidin sensors, sAniA 50-1000 nM in solution, 2:1 heterogeneous ligand model, average ± SEM of three experiments", "experimental": "Streptavidin (SA) biosensors (ForteBio) were loaded with C7-3Bio peptides for 10 min. Unloaded tips were used as a control. The sAniA samples were prepared in Kinetic Buffer in concentrations of 50, 100, 500, and 1000 nM. The baseline was established for 240 s and the association and dissociation steps were performed for 500 s. Experiments were performed in three biological replicates with the curve fitting using 2:1 (Heterogeneous Ligand) model and KD value calculations were completed using Octet Data Analysis (version 9).\nThe BLI experiments were performed using steady state method and curve fitting of the association and dissociation responses."}, "[4]": {"target": "T1, sAniA, recombinant AniA (NGO1276) of …", "test": "phage ELISA on sAniA-coated wells; reference is phage-displayed 12-5", "experimental": "Individual wells in 96-well transparent plates (Greiner-Bio) were coated with 100 μL of 100 pg/mL of sAniA suspended in 0.1 M NaHCO₃pH 8.6 and incubated overnight at 4° C. in an airtight humidified box. After incubation, excess target solution was shaken out and wells were filled with 300 μL of blocking buffer (0.1 M NaHCO₃pH 8.6, 5 mg/mL BSA). Following 2 h incubation at 4° C., blocking buffer was removed and wells were washed six times with 200 μL of TBST (50 mM Tris-HCl pH 8.6, 150 mM NaCl, 0.5% Tween). Isolated individual phage amplifications (10¹⁰ PFU) in 100 μl of TBST were incubated at room temperature for 1 h with rocking. All wells were then cleared by shaking and washed six times with 200 μL of TBST. A solution containing Anti-M13 HRP linked-Monoclonal Antibodies (NEB) (1:5,000 dilution in blocking buffer) was distributed at 200 μL per well and incubated with rocking at room temperature for 1 h. Wells were washed six times with TBST and incubated with Turbo TMB-ELISA for 30 min with rocking at room temperature. […] Data from seven independent experiments are shown with mean and SEM"}},
  "note": "The star is where a group is joined. Biotin = O=C1N[C@H]2[C@H](CS[C@H]2CCCCC(=O)*)N1; Ahx = NCCCCCC(=O)O",
  "data": [
    {"binder": "H-ACNYCRLNLWGGGS-NH2 (cysteine pairing not given here)", "note": "[synthetic peptide C7-3 (H-…-NH2)]", "values": [
      {"measurement": "percent inhibition of nitrite reductase activity of intact N. gonorrhoeae cells at 0.6 mM peptide", "setting": "[1]", "result": 50, "unit": "%"}
    ]},
    {"binder": "H-ACSYCRLNLWGGGS-NH2 (cysteine pairing not given here)", "note": "[synthetic peptide C7-3m2 (H-…-NH2)]", "values": [
      {"measurement": "percent inhibition of nitrite reductase activity of intact N. gonorrhoeae cells at 0.3 mM peptide", "setting": "[1]", "result": 50, "unit": "%"},
      {"measurement": "percent inhibition of nitrite reductase activity of intact N. gonorrhoeae cells at 0.6 mM peptide", "setting": "[1]", "result": 90, "unit": "%"}
    ]},
    {"binder": "H-ACNYCRLNLWGGGS-NH2 (cysteine pairing not given here)", "note": "[synthetic peptide C7-3 (H-ACNYCRLNLWGGGS-NH2)]", "values": [
      {"measurement": "IC50 of inhibition of nitrite reductase activity of sAniA (DAN assay)", "setting": "[2]", "result": 10.2, "unit": "µM"}
    ]},
    {"binder": "H-ACNACRLNLWGGGS-NH2 (cysteine pairing not given here)", "note": "[synthetic peptide C7-3A (H-ACNACRLNLWGGGS-NH2)]", "values": [
      {"measurement": "IC50 of inhibition of nitrite reductase activity of sAniA (DAN assay)", "setting": "[2]", "result": "~25.2", "unit": "µM"}
    ]},
    {"binder": "H-ACNFCRLNLWGGGS-NH2 (cysteine pairing not given here)", "note": "[synthetic peptide C7-3P (H-ACNFCRLNLWGGGS-NH2)]", "values": [
      {"measurement": "IC50 of inhibition of nitrite reductase activity of sAniA (DAN assay)", "setting": "[2]", "result": "> 105", "unit": "µM"}
    ]},
    {"binder": "H-ACNYSRLNLWGGGS-NH2", "note": "[synthetic peptide C7-3m1 (H-ACNYSRLNLWGGGS-NH2)]", "values": [
      {"measurement": "IC50 of inhibition of nitrite reductase activity of sAniA (DAN assay)", "setting": "[2]", "result": 5.91, "unit": "µM"}
    ]},
    {"binder": "H-ACSYCRLNLWGGGS-NH2 (cysteine pairing not given here)", "note": "[synthetic peptide C7-3m2 (H-ACSYCRLNLWGGGS-NH2)]", "values": [
      {"measurement": "IC50 of inhibition of nitrite reductase activity of sAniA (DAN assay)", "setting": "[2]", "result": 4.81, "unit": "µM"}
    ]},
    {"binder": "{Biotin-Ahx}-ACNYCRLNLWGGGS-NH2 (cysteine pairing not given here, Immobilized on streptavidin biosensors in the BLI experiment; also called biotinylated C7-3)", "note": "[C7-3Bio, C7-3 biotinylated at the N-terminus (BiotinAhx-ACNYCRLNLWGGGS-NH2)]", "values": [
      {"measurement": "IC50 of inhibition of nitrite reductase activity of AniA (DAN assay)", "setting": "[2]", "result": 13.5, "unit": "µM"},
      {"measurement": "Kd", "setting": "[3]", "result": 0.775, "unit": "µM"}
    ]},
    {"binder": "CNYCRLNLW (peptide, not shown: large carriers, Tested as whole phage (10^10 PFU per well) in the phage ELISA; Trp stands where the library's second Cys would be; also called phage-expressed C7-3)", "note": "[phage-displayed peptide C7-3 (CNYCRLNLW), M13 phage clone from the Ph.D.-C7C library]", "values": [
      {"measurement": "fold lower relative binding in comparison to 12-5", "setting": "[4]", "result": "~2", "unit": "fold"}
    ]}
  ]
}
